Laboratory results taken from patent US20120034672A1, “[…] LUCIFERASE VARIANT WITH PROLONGED BIOLUMINESCENCE” (priority 2009, published 2012).
Entries after “also recorded” stand apart in the source; their conditions may differ.

Assays:
[1] = Luminescence activities of MpLuc1 and its variants; assay type: cell-based; details: for luminescence stability compared with MpLuc1: microplate reader
Protocol: These variants were individually introduced in equal amounts into living cells, and their relative luminescence intensities were measured.

[2] = Temporal changes in bioluminescence intensity after substrate introduction (stability); details: for bioluminescence stability and strength: substrate in modified Matthew's buffer; for bioluminescence stability, short time: 5 seconds; for bioluminescence stability, short time / bioluminescence stability, long time: substrate in PBS buffer; for bioluminescence stability, long time: 10 minutes
Protocol: First, a gene encoding each GLuc variant was cloned into pcDNA 3.1(+), and the same amount of plasmid was introduced into COS-7 cells. The cells were collected 16 hours after the introduction, lysed in cell lysate, and then transferred to a microplate reader. PBS buffer in which coelenterazine is dissolved was set to a substrate injector of the plate reader. At the measurement, after the substrate was automatically injected into each well, changes in the luminescence intensities were measured every 0.05 seconds.
Note that the composition of the modified Matthew's buffer contains the following components: • 100 mM potassium phosphate, 500 mM sodium chloride, 1 mM ethylenediaminetetraacetic acid (EDTA), 0.15 mg/ml porcine gelatin, pH 5.0, 1% Nonyiphenol ethoxylates (Tergitol NP-9) and 1% Antifoam, 25 mM thiourea, and 0.1% DMSO.

[3] = Area of luminescence spectrum of GLuc variants (20-minute lysis, luminescence plate reader); assay type: biochemical; details: for bioluminescence intensity higher than GLuc (area ratio): plate reader; for bioluminescence intensity (area of spectrum), in words: versus original GLuc
Protocol: In this case, a protocol for immersing the lysate samples in lysis solution for 20 minutes was employed (uniformed cell lysates even whose organelles are lysed). The area of the luminescence spectrum measured by a luminescence plate reader was used as the index of the luminescence intensity.

BALE/c nude mice = assay: In vivo imaging of transplanted COS-7 cells expressing GLuc or 8990; details: subcutaneous COS-7 cells, coelenterazine injected; listed as 8990
Protocol: Subsequently, both of these transformed cells were transplanted into subcutaneous tissues of the back on the left and right sides of BALE/c nude mice (5-week-old female). After waiting 12 hours to allow stabilization of the transplanted cells, an equal amount of substrate (coelenterazine) was injected. Subsequently, the developed bioluminescence intensities were compared (FIG. 16A).

[4] = Luminescence spectrum of GLuc variants in COS-7 cell lysates (5-minute lysis, spectrophotometer); assay type: biochemical; details: for luminescence intensity higher than GLuc (peak of luminescence spectrum): COS-7 lysate, coelenterazine; for luminance (peak of luminescence spectrum), in words: versus original GLuc
Protocol: Subsequently, cell lysates were prepared from the COS-7 cells in each well (5-minute lysis), and a spectrum was measured in the presence of a luciferase-specific substrate (coelenterazine), using a fluorescence spectrophotometer (F-7000, Hitachi), thereby examining the effect of the introduced mutation. FIGS. 4B-1 and 4C show the results.
Additionally, in the preparation of cell samples, the samples are immersed in a lysis solution for 5 minutes. This allows preparation of non-uniform samples of cells whose organelles are not lysed, by a quick process.

[5] = Luminescence activities of MLuc and its variants; assay type: cell-based; details: for luminescence stability of MLuc variants: measured every 0.5 seconds
Protocol: These variants were individually introduced in equal amounts into living cells, and their relative luminescence spectra were measured. […] In order to examine the luminescence stability of the variants produced in the present invention, temporal changes in the luminescence intensity after the introduction of the substrate were measured every 0.5 seconds (FIG. 15B). […] Further, in order to examine the long-wavelength luminescence intensities of the variants, the luminescence intensities of the variants were measured using a 610 nm long-pass filter. […] Results similar to the above tendency were obtained from the measurement of the luminescence intensities before and after the introduction of the substrate (FIG. 15D).

B1: I114L: MpLuc1 with a mutation introduced into I114; corresponds to I90 of GLuc (protein)
chain: MMEIQVLFALICFALVQANPTENKDDIDIVGVEGKFGTTDLETDLFTIVEDMNVISRDTNLANSDADRGKMPGKKLPLEVLIEMEANARKAGCTRGCLICLSKIKCTAKMKVYLPGRCHDYGGDKKTGQAGIVGAIVDIPEISGFKELGPMEQFIAQVDLCADCTTGCLKGLANVKCSALLKKWLPDRCASFADKIQSEVDNIKGLAGDRKDEL
modifications: MpLuc1 mutant (I114L)
In the case of B1, the “luminescence intensity compared to original MpLuc1” value ([1]; luminescence spectrum) is reported as “higher luminescence intensity” and the “luminescence stability compared with MpLuc1” value [1] is reported as “more stable bioluminescences”.

B2: F89W/I90L: GLuc with isoleucine 90 replaced with leucine and phenylalanine 89 with tryptophan (protein)
chain: MGVKVLFALICIAVAEAKPTENNEDFNIVAVASNFATTDLDADRGKLPGKKLPLEVLKEMEANARKAGCTRGCLICLSHIKCTPKMKKWLPGRCHTYEGDKESAQGGIGEAIVDIPEIPGFKDLEPMEQFIAQVDLCVDCTTGCLKGLANVQCSDLLKKWLPQRCATFASKIQGQVDKIKGAGGDKDEL
modifications: GLuc mutant (F89W/I90L); named 8990
For B2, the “bioluminescence stability and strength” value [2] was “very stable and strong bioluminescence”, the “bioluminescence intensity higher than GLuc (area ratio)” value [3] was 10.2 times and the “bioluminescence intensity (area of spectrum), in words” value (“bioluminescence intensity … in words” below) [3] was “particularly high bioluminescence intensity”. For the same molecule, the “bioluminescence at transplantation site versus GLuc” value (BALE/c nude mice) was “stronger bioluminescence”.

B3: Y97W: GLuc variant in which tyrosine (Y) at position 97 was mutated to tryptophan (W) (protein)
chain: MGVKVLFALICIAVAEAKPTENNEDFNIVAVASNFATTDLDADRGKLPGKKLPLEVLKEMEANARKAGCTRGCLICLSHIKCTPKMKKFIPGRCHTWEGDKESAQGGIGEAIVDIPEIPGFKDLEPMEQFIAQVDLCVDCTTGCLKGLANVQCSDLLKKWLPQRCATFASKIQGQVDKIKGAGGDKDEL
modifications: GLuc mutant (Y97W)
With B3 the “bioluminescence stability, short time” value [2] was “stable luminescence intensities; also recorded: relatively stable bioluminescences”, the “bioluminescence intensity higher than GLuc (area ratio)” value [3] was 2.1 times and the “bioluminescence intensity … in words” value [3] was “particularly high bioluminescence intensity”.

B4: H95E: GLuc variant, histidine at position 95 replaced with glutamic acid (protein)
chain: MGVKVLFALICIAVAEAKPTENNEDFNIVAVASNFATTDLDADRGKLPGKKLPLEVLKEMEANARKAGCTRGCLICLSHIKCTPKMKKFIPGRCETYEGDKESAQGGIGEAIVDIPEIPGFKDLEPMEQFIAQVDLCVDCTTGCLKGLANVQCSDLLKKWLPQRCATFASKIQGQVDKIKGAGGDKDEL
modifications: GLuc mutant (H95E)
For B4, the “bioluminescence intensity higher than GLuc (area ratio)” value [3] was 3.0 times and the “bioluminescence intensity … in words” value [3] was “particularly high bioluminescence intensity”.

B5: I108V: GLuc variant, position 108 replaced with valine (protein)
chain: MGVKVLFALICIAVAEAKPTENNEDFNIVAVASNFATTDLDADRGKLPGKKLPLEVLKEMEANARKAGCTRGCLICLSHIKCTPKMKKFIPGRCHTYEGNKESAQGGVGEAIVDIPEIPGFKDLEPMEQFIAQVDLCVDCTTGCLKGLANVQCSDLLKKWLPQRCATFASKIQGQVDKIKGAGGDKDEL
modifications: GLuc mutant (I108V)
In the case of B5, the “luminescence intensity higher than GLuc (peak of luminescence spectrum)” value [4] is reported as 6.7 times and the “luminance (peak of luminescence spectrum), in words” value (“luminance” for short) [4] is reported as “particularly high luminance”.

B6: F89W: GLuc variant, F at position 89 replaced with W (protein)
chain: MGVKVLFALICIAVAEAKPTENNEDFNIVAVASNFATTDLDADRGKLPGKKLPLEVLKEMEANARKAGCTRGCLICLSHIKCTPKMKKWIPGRCHTYEGDKESAQGGIGEAIVDIPEIPGFKDLEPMEQFIAQVDLCVDCTTGCLKGLANVQCSDLLKKWLPQRCATFASKIQGQVDKIKGAGGDKDEL
modifications: GLuc mutant (F89W)
With B6 the “bioluminescence stability, short time” value [2] was “relatively unstable luminescence intensity”, the “bioluminescence stability, long time” value [2] was “relatively unstable” and the “decrease of bioluminescence intensity” value ([2]; within 10 minutes after introduction of substrate) was “about 60%”. For the same molecule, the “luminescence intensity higher than GLuc (peak of luminescence spectrum)” value [4] was 9 times and the “luminance” value [4] was “particularly high luminance”.

B7: I90V: GLuc variant, isoleucine at position 90 mutated to valine (protein)
chain: MGVKVLFALICIAVAEAKPTENNEDFNIVAVASNFATTDLDADRGKLPGKKLPLEVLKEMEANARKAGCTRGCLICLSHIKCTPKMKKFVPGRCHTYEGNKESAQGGIGEAIVDIPEIPGFKDLEPMEQFIAQVDLCVDCTTGCLKGLANVQCSDLLKKWLPQRCATFASKIQGQVDKIKGAGGDKDEL
modifications: GLuc mutant (I90V)
With B7 the “bioluminescence stability, long time” value [2] was “relatively stable” and the “luminance” value [4] was “particularly high luminance”.

B8: I90L/I115L: GLuc with isoleucine at positions 90 and 115 replaced with leucine (protein)
chain: MGVKVLFALICIAVAEAKPTENNEDFNIVAVASNFATTDLDADRGKLPGKKLPLEVLKEMEANARKAGCTRGCLICLSHIKCTPKMKKFLPGRCHTYEGDKESAQGGIGEAIVDLPEIPGFKDLEPMEQFIAQVDLCVDCTTGCLKGLANVQCSDLLKKWLPQRCATFASKIQGQVDKIKGAGGDKDEL
modifications: GLuc mutant (I90L/I115L)
With B8 the “bioluminescence stability and strength” value [2] was “very stable and strong bioluminescence”, the “bioluminescence intensity higher than GLuc (area ratio)” value [3] was 4.9 times and the “bioluminescence intensity … in words” value [3] was “particularly high bioluminescence intensity”.

B9: I118V: GLuc variant, position 118 replaced with valine (protein)
chain: MGVKVLFALICIAVAEAKPTENNEDFNIVAVASNFATTDLDADRGKLPGKKLPLEVLKEMEANARKAGCTRGCLICLSHIKCTPKMKKFIPGRCHTYEGNKESAQGGIGEAIVDIPEVPGFKDLEPMEQFIAQVDLCVDCTTGCLKGLANVQCSDLLKKWLPQRCATFASKIQGQVDKIKGAGGDKDEL
modifications: GLuc mutant (I118V)
With B9 the “luminance” value [4] was “particularly high luminance”.

B10: MLuc4: Y122W/I123L/H128E/Y130W variant of MLuc (protein)
chain: MDIKVVFTLVFSALVQAKSTEFDPNIDIVGLEGKFGITNLETDLFTIWETMEVMIKADIADTDRASNFVATETDANRGKMPGKKLPLAVIMEMEANAFKAGCTRGCLICLSKIKCTAKMKVWLPGRCEDWGGDKKTGQAGIVGAIVDIPEISGFKEMAPMEQFIAQVDRCASCTTGCLKGLANVKCSELLKKWLPDRCASFADKIQKEVHNIKGMAGDR
modifications: MLuc mutant (Y122W/I123L/H128E/Y130W); MLuc4
notes: Y122W/I123L/H128E/Y130W variant of MLuc
For B10, the “luminescence stability of MLuc variants” value [5] was “most stable bioluminescence” and the “luminescence stability of MLuc variants” value ([5]; listed as Mluc4) was “more stable bioluminescence”.

B11: I123L: MLuc with I123L mutation introduced; corresponds to I90 of GLuc (protein)
chain: MDIKVVFTLVFSALVQAKSTEFDPNIDIVGLEGKFGITNLETDLFTIWETMEVMIKADIADTDRASNFVATETDANRGKMPGKKLPLAVIMEMEANAFKAGCTRGCLICLSKIKCTAKMKVYLPGRCHDYGGDKKTGQAGIVGAIVDIPEISGFKEMAPMEQFIAQVDRCASCTTGCLKGLANVKCSELLKKWLPDRCASFADKIQKEVHNIKGMAGDR
modifications: MLuc mutant (I123L)
For B11, the long-wavelength luminescence intensity ([5]; 610 nm long-pass filter) was “strong bioluminescence in the red wavelength” and the “luminescence intensity compared to original MLuc” value ([5]; luminescence spectrum) was “increased”.

B12: MpLuc4: Y113W/I114L/H119E/Y121W variant of MpLuc1 (protein)
chain: MMEIQVLFALICFALVQANPTENKDDIDIVGVEGKFGTTDLETDLFTIVEDMNVISRDTNLANSDADRGKMPGKKLPLEVLIEMEANARKAGCTRGCLICLSKIKCTAKMKVWLPGRCEDWGGDKKTGQAGIVGAIVDIPEISGFKELGPMEQFIAQVDLCADCTTGCLKGLANVKCSALLKKWLPDRCASFADKIQSEVDNIKGLAGDR
modifications: MpLuc1 mutant (Y113W/I114L/H119E/Y121W); MpLuc4
notes: Y113W/I114L/H119E/Y121W variant of MpLuc1
With B12 the “initial luminescence intensity sustained” value ([1]; 10 seconds after introduction of substrate) was 60% and the “luminescence stability compared with MpLuc1” value [1] was “more stable bioluminescences”.
